Paper PMC5019495 (Nature, 2016)
Residue numbers refer to the chain shown, from its start. Numbers in names are those of the source. Where two headings read alike, the source gives them in different places.

T1: yeast E2 Ubc9 (wild type) (yeast, UniProt P50623 1-157)
T1 sequence (looked up): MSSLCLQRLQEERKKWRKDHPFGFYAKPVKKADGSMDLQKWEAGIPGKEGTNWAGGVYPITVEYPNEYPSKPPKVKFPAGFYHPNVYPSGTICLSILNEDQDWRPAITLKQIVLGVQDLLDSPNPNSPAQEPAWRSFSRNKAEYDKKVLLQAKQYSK

T2: yeast E3 active fragment Siz1^(167–465) (yeast, UniProt Q04195 167-465)
T2 sequence (looked up): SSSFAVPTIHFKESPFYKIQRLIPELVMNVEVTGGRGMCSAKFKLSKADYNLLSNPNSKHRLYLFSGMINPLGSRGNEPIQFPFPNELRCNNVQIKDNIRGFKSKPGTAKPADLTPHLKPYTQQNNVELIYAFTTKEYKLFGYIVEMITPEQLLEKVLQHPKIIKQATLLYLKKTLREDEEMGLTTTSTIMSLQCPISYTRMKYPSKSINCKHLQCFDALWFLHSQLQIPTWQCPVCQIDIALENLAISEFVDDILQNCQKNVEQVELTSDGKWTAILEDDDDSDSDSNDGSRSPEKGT

B1: Smt3^K11C-Alexa488 (natural protein)
chain: SDSEVNQEACPEVKPEVKPETHINLKVSDGSSEIFFKIKKTTPLRRLMEAFAKRQGKEMDSLRFLYDGIRIQADQTPEDLDMEDNDIIEAHREQIGG
modifications: Alexa Fluor 488 maleimide on Cys11
B2: Ubc9^C93K-Smt3 thioester mimetic (complex)
chain 1: T1 sequence (looked up) with C93K
chain 2: B1 chain with C10K
modifications: Lys93 linked to the C-terminus of Smt3 (stable peptide bond) | C-terminus linked to Lys93 of Ubc9
B3: Ubc9^A129K/K153R-Smt3 thioester mimetic (complex)
chain 1: T1 sequence (looked up) with A129K, K153R
chain 2: B1 chain with C10K
modifications: Lys129 linked to the C-terminus of Smt3 | C-terminus linked to Lys129 of Ubc9

How the values were obtained:
[1] = molecular target: T1, yeast E2 Ubc9 (wild type); assay: fluorescence polarisation
[2] = molecular target: T2, yeast E3 active fragment Siz1^(167–465); assay: competitive inhibition of multiple turnover SUMO conjugation
[3] = molecular target: T2, yeast E3 active fragment Siz1^(167–465); assay: as above; remark: listed apart in the source

Binder | Kd [1] | Ki [2] | Ki [3]
B1 | 24.6 nM | – | –
B2 | – | 2050 nM | 1440 nM
B3 | – | 4330 nM | 3150 nM
